Results published in patent publication US20210054097A1 (Novo Nordisk, published 2021).
Ends that are not written are not given here.

Tests used:
[1] = target: T1, human plasma-derived Factor X zymogen (human, UniProt P00742 41-179; P00742 183-488); test: cell-based or functional assay
[2] = target: T1, human plasma-derived Factor X zymogen; test: apparent KD fitted from FXa generation assay
Description: The ability of the monovalent anti-FX Nanobody® (Nb) to promote FIXa-mediated FX-activation was determined in the presence of a procoagulant phospholipid membrane according to the principles described by Scheiflinger et al. (2008) J Thromb Haemost, 6:315-322. A Fab of mAb 13F62 (IgG1 isotype, variable sequences identified by SEQ ID NO:6 and 7), also found to bind the activation peptide, were included for comparison. Moreover, anti-FX antibodies as disclosed in U.S. Pat. No. 9,334,331 (J327 and L404-k in said publication), corresponding to the anti-FX arm of ACE910); and more recently in WO2018/021450 (J327 D31H and JYL280 in said publication) and WO2018/098363 (BIIB-12-917 represented by SEQ ID NO:427 and 615 in said publication) are stated to be suitable for use as part of anti-FIX/anti-FX bispecific FVIII mimetic compounds were, furthermore, included for comparison.
Each compound was tested individually in a concentration range from 0-1000 nM, 0-2000 nM, 0-4000 nM or 0-8000 nM by pre-incubation with 1-1.5 nM human plasma-derived FIXa (Haematologic Technologies Inc, USA) and 500 μM 25:75 phosphatidyl serine:phosphatidyl choline phospholipid vesicles (Haematologic Technologies Inc, USA) in assay buffer (50 mM HEPES, 100 mM NaCl, 5 mM CaCl₂, 0.1% (w/v) PEG8000, 1 mg/mL bovine serum albumin, pH 7.3) for 10 minutes. The reaction was initiated by addition of human plasma-derived FX (Haematologic Technologies Inc, USA) to a final concentration of 100 nM and a reaction volume of 50 μL. Following 20 minutes activation at room temperature while agitated (1000 RPM), the reaction was quenched by addition of 25 μL quench buffer (50 mM HEPES, 100 mM NaCl, 60 mM EDTA, 0.1% (w/v) PEG8000, 1 mg/mL bovine serum albumin, pH 7.3). The amount of FXa generated was determined by addition of 25 μL 2 mM S-2765 chromogenic substrate for FXa (Chromogenix, Sweden) and chromogenic substrate conversion was followed by measuring absorbance at 405 nm for 10 minutes in a microplate reader. The observed change in 405 nm absorbance (ΔAbs405/min) was fitted to the quadratic binding equation (eq. 1) to obtain the peak stimulatory activity and EC50.

human activated Factor X = human activated Factor X (human, UniProt P00742 41-179; P00742 235-488); test: cell-based or functional assay
human activated Factor X, sequence (P00742 41-179, chain 1 of 2): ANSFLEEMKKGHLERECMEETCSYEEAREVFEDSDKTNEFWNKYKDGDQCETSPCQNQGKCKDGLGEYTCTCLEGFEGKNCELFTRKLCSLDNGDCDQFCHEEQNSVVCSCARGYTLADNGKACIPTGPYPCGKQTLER
human activated Factor X, sequence (P00742 235-488, chain 2 of 2): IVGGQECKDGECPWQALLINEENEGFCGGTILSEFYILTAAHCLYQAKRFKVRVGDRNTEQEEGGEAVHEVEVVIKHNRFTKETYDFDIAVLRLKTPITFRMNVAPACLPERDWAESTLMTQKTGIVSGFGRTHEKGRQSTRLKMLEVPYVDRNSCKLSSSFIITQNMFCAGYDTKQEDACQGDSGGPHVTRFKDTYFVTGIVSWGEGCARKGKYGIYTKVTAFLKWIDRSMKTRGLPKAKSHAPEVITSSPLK

[3] = target: T2, FX activation peptide 12-mer KPYDAADLDPTE (human); test: peptide ELISA
T2 peptide: KPYDAADLDPTE-biotin
Description: (§1) The peptides were C-terminally conjugated to biotin and 50 μL of 1 μg/mL peptide solution was used for immobilization in discrete wells of the microtiter plate which was pre-coated with 1 μg/mL streptavidin. Each well was washed with washing buffer (10 mM Tris, 150 mM NaCl, 2.5 mM CaCl₂, 0.05% Tween 20, pH 8.60) followed by addition of 50 μL of 2 μg/mL FLAG-tagged anti-FX Nanobody® or IgG antibody to be tested. After 1 hour non-bound Nanobody®/antibody was washed off using washing buffer.
(§2) Bound anti-FX activation peptide ligand was detected by first binding a HRP-labelled secondary antibody (for FLAG-tagged Nanobodies: Anti-FLAG mAb M2-Peroxidase (HRP) (Sigma Aldrich, US), for antibody: Fcγ Fragment Specific Peroxidase AffiniPure F(ab′)₂ Fragment Goat Anti-Human IgG (Jackson ImmunoResearch Laboratories, Inc., US), or Peroxidase AffiniPure Goat Anti-Mouse IgG (Jackson ImmunoResearch Laboratories, Inc., US)) for 1 hour, and then adding 100 μL TMB-1 ELISA substrate (Kem-En-Tec Diagnostics, Denmark).

[4] = target: T3, FX activation peptide 12-mer DPTENPFDLLDF (human); test: peptide ELISA
T3 peptide: DPTENPFDLLDF-biotin
Description: as §1, §2

[5] = target: T4, FX activation peptide 12-mer QATSSSGEAPDS (human); test: peptide ELISA
T4 peptide: QATSSSGEAPDS-biotin
Description: as §1, §2

[6] = target: T5, FX activation peptide 12-mer PFDLLDFNQTQP (human); test: peptide ELISA
T5 peptide: PFDLLDFNQTQP-biotin
Description: as §1, §2

[7] = target: T6, FX activation peptide 12-mer PYDAADLDPTEN (human); test: peptide ELISA
T6 peptide: PYDAADLDPTEN-biotin
Description: as §1, §2

[8] = target: T7, FX activation peptide 12-mer WKPYDAADLDPT (human); test: peptide ELISA
T7 peptide: WKPYDAADLDPT-biotin
Description: as §1, §2

[9] = target: T8, FX activation peptide 12-mer ATSSSGEAPDSI (human); test: peptide ELISA
T8 peptide: ATSSSGEAPDSI-biotin
Description: as §1, §2

[10] = target: T9, FX activation peptide 12-mer TSSSGEAPDSIT (human); test: peptide ELISA
T9 peptide: TSSSGEAPDSIT-biotin
Description: as §1, §2

[11] = target: T10, FX activation peptide 12-mer PTENPFDLLDFN (human); test: peptide ELISA
T10 peptide: PTENPFDLLDFN-biotin
Description: as §1, §2

[12] = target: T11, FX activation peptide 12-mer DSITWKPYDAAD (human); test: peptide ELISA
T11 peptide: DSITWKPYDAAD-biotin
Description: as §1, §2

[13] = target: T12, FX activation peptide 12-mer DLLDFNQTQPER (human); test: peptide ELISA
T12 peptide: DLLDFNQTQPER-biotin
Description: as §1, §2

[14] = target: T13, FX activation peptide 12-mer AQATSSSGEAPD (human); test: peptide ELISA
T13 peptide: AQATSSSGEAPD-biotin
Description: as §1, §2

[15] = target: T14, FX activation peptide 12-mer ADLDPTENPFDL (human); test: peptide ELISA
T14 peptide: ADLDPTENPFDL-biotin
Description: as §1, §2

[16] = target: T15, FX activation peptide 12-mer ITWKPYDAADLD (human); test: peptide ELISA
T15 peptide: ITWKPYDAADLD-biotin
Description: as §1, §2

[17] = target: T16, FX activation peptide 12-mer TQPERGDNNLTR (human); test: peptide ELISA
T16 peptide: TQPERGDNNLTR-biotin
Description: as §1, §2

[18] = target: T17, FX activation peptide 12-mer QTQPERGDNNLT (human); test: peptide ELISA
T17 peptide: QTQPERGDNNLT-biotin
Description: as §1, §2

[19] = target: T18, FX activation peptide 12-mer LLDFNQTQPERG (human); test: peptide ELISA
T18 peptide: LLDFNQTQPERG-biotin
Description: as §1, §2

[20] = target: T19, FX activation peptide 12-mer LDFNQTQPERGD (human); test: peptide ELISA
T19 peptide: LDFNQTQPERGD-biotin
Description: as §1, §2

[21] = target: T20, FX activation peptide 12-mer YDAADLDPTENP (human); test: peptide ELISA
T20 peptide: YDAADLDPTENP-biotin
Description: as §1, §2

[22] = target: T21, FX activation peptide 12-mer DLDPTENPFDLL (human); test: peptide ELISA
T21 peptide: DLDPTENPFDLL-biotin
Description: as §1, §2

[23] = target: T22, FX activation peptide 12-mer EAPDSITWKPYD (human); test: peptide ELISA
T22 peptide: EAPDSITWKPYD-biotin
Description: as §1, §2

[24] = target: T23, FX activation peptide 12-mer TENPFDLLDFNQ (human); test: peptide ELISA
T23 peptide: TENPFDLLDFNQ-biotin
Description: as §1, §2

[25] = target: T24, FX activation peptide 12-mer ENPFDLLDFNQT (human); test: peptide ELISA
T24 peptide: ENPFDLLDFNQT-biotin
Description: as §1, §2

[26] = target: T25, FX activation peptide 12-mer SGEAPDSITWKP (human); test: peptide ELISA
T25 peptide: SGEAPDSITWKP-biotin
Description: as §1, §2

[27] = target: T26, FX activation peptide 12-mer SSGEAPDSITWK (human); test: peptide ELISA
T26 peptide: SSGEAPDSITWK-biotin
Description: as §1, §2

[28] = target: T27, FX activation peptide 12-mer LDPTENPFDLLD (human); test: peptide ELISA
T27 peptide: LDPTENPFDLLD-biotin
Description: as §1, §2

[29] = target: T28, FX activation peptide 12-mer SSSGEAPDSITW (human); test: peptide ELISA
T28 peptide: SSSGEAPDSITW-biotin
Description: as §1, §2

[30] = target: T29, FX activation peptide 12-mer APDSITWKPYDA (human); test: peptide ELISA
T29 peptide: APDSITWKPYDA-biotin
Description: as §1, §2

[31] = target: T30, FX activation peptide 12-mer NPFDLLDFNQTQ (human); test: peptide ELISA
T30 peptide: NPFDLLDFNQTQ-biotin
Description: as §1, §2

[32] = target: T31, FX activation peptide 12-mer PDSITWKPYDAA (human); test: peptide ELISA
T31 peptide: PDSITWKPYDAA-biotin
Description: as §1, §2

[33] = target: T32, FX activation peptide 12-mer TWKPYDAADLDP (human); test: peptide ELISA
T32 peptide: TWKPYDAADLDP-biotin
Description: as §1, §2

[34] = target: T33, FX activation peptide 12-mer FNQTQPERGDNN (human); test: peptide ELISA
T33 peptide: FNQTQPERGDNN-biotin
Description: as §1, §2

[35] = target: T34, FX activation peptide 12-mer AADLDPTENPFD (human); test: peptide ELISA
T34 peptide: AADLDPTENPFD-biotin
Description: as §1, §2

[36] = target: T35, FX activation peptide 12-mer GEAPDSITWKPY (human); test: peptide ELISA
T35 peptide: GEAPDSITWKPY-biotin
Description: as §1, §2

[37] = target: T36, FX activation peptide 12-mer DFNQTQPERGDN (human); test: peptide ELISA
T36 peptide: DFNQTQPERGDN-biotin
Description: as §1, §2

[38] = target: T37, FX activation peptide 12-mer SITWKPYDAADL (human); test: peptide ELISA
T37 peptide: SITWKPYDAADL-biotin
Description: as §1, §2

[39] = target: T38, FX activation peptide 12-mer FDLLDFNQTQPE (human); test: peptide ELISA
T38 peptide: FDLLDFNQTQPE-biotin
Description: as §1, §2

[40] = target: T39, FX activation peptide 12-mer DAADLDPTENPF (human); test: peptide ELISA
T39 peptide: DAADLDPTENPF-biotin
Description: as §1, §2

T1 sequence (P00742 41-179, chain 1 of 2): as the sequence (P00742 41-179, chain 1 of 2) above
T1 sequence (P00742 183-488, chain 2 of 2): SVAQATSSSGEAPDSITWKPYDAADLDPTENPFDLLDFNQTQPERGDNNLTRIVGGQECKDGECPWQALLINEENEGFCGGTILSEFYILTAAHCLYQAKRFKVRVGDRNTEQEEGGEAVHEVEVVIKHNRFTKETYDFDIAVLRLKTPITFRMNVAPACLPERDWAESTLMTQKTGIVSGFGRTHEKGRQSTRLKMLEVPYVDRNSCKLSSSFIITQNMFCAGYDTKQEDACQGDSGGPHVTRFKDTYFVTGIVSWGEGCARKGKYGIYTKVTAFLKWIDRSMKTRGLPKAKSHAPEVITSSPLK

B1: Fab of mAb 13F62 (Fab, V domains shown)
VH: EVQLVESGGGQVKPGGSLRLSCAASGFTFSTSSIYWVRQAPGKGLEWVSSISSGSSYIFYADSVKGRFTISRDNAKNSLFLQMNSLRAEDTAVYYCVSGYSRLLDYWGQGTLVTVSS
VL: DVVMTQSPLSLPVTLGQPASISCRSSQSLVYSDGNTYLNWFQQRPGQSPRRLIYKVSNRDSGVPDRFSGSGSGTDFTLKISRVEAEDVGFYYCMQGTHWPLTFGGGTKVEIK
notes: Fab of an IgG1 antibody; also called Fab of 13F62
Increase in FX activation (fold) [1]: 1.5 fold | Kd [2]: 3.1 nM

B2: mAb 13F62 (antibody, V domains shown)
VH: B1 VH
VL: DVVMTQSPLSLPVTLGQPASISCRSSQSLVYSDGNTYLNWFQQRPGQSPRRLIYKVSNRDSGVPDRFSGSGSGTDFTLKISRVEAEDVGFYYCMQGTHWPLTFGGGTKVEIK
notes: IgG1 isotype
FXa amidolytic activity (relative to free FXa, fold) (human activated Factor X): 0.94 fold | ELISA signal relative to background [3]: 0.77 | ELISA signal relative to background [4]: 29.8 | ELISA signal relative to background [5]: 1.82 | ELISA signal relative to background [6]: 29.7 | ELISA signal relative to background [7]: 0.84 | ELISA signal relative to background [8]: 1.18 | ELISA signal relative to background [9]: 3.2 | ELISA signal relative to background [10]: 0.68 | ELISA signal relative to background [11]: 30.1 | ELISA signal relative to background [12]: 3.61 | ELISA signal relative to background [13]: 0.82 | ELISA signal relative to background [14]: 1.89 | ELISA signal relative to background [15]: 1.25 | ELISA signal relative to background [16]: 4.23 | ELISA signal relative to background [17]: 8.86 | ELISA signal relative to background [18]: 1.95 | ELISA signal relative to background [19]: 0.86 | ELISA signal relative to background [20]: 0.8 | ELISA signal relative to background [21]: 0.84 | ELISA signal relative to background [22]: 26.4 | ELISA signal relative to background [23]: 1.64 | ELISA signal relative to background [24]: 29.7 | ELISA signal relative to background [25]: 28.7 | ELISA signal relative to background [26]: 0.82 | ELISA signal relative to background [27]: 0.73 | ELISA signal relative to background [28]: 31 | ELISA signal relative to background [29]: 0.77 | ELISA signal relative to background [30]: 1.59 | ELISA signal relative to background [31]: 28.6 | ELISA signal relative to background [32]: 1.89 | ELISA signal relative to background [33]: 1.95 | ELISA signal relative to background [34]: 1.77 | ELISA signal relative to background [35]: 0.77 | ELISA signal relative to background [36]: 1.5 | ELISA signal relative to background [37]: 1.23 | ELISA signal relative to background [38]: 7.95 | ELISA signal relative to background [39]: 30.6 | ELISA signal relative to background [40]: 0.77

B3: Nb 721E08 (VHH)
VHH: EVQLVESGGGVVQPGGSLRLSCAASGRTFSTYSMGWFRQAPGKEREFVAAITRRGSRTYYADSVKGRFTISRDNSKNTVYLQMNSLRPEDTALYYCAADRRPADSYLDYWGQGTLVTVSS
notes: monovalent Nanobody; not shown: C-terminal FLAG3 and HIS6 tag
FXa amidolytic activity (relative to free FXa, fold) (human activated Factor X): 1.07 fold | ELISA signal relative to background [3]: 1.89 | ELISA signal relative to background [5]: 1.97 | ELISA signal relative to background [8]: 1.83 | ELISA signal relative to background [14]: 1.92 | ELISA signal relative to background [15]: 2.34 | ELISA signal relative to background [17]: 1.97 | ELISA signal relative to background [18]: 1.96 | ELISA signal relative to background [20]: 2.21 | ELISA signal relative to background [29]: 1.99 | ELISA signal relative to background [35]: 2.22 | Increase in FX activation (fold) [1]: > 25 fold | Kd [2]: ~1700 nM
